The labels stand for the following.
T1: LGN GL4 motif (mouse)
T1 chain: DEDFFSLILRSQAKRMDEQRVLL

T2: LGN GL3 motif (mouse)
T2 chain: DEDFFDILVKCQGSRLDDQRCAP

T3: LGN-GL1234 (483–650) (mouse)
T3 chain: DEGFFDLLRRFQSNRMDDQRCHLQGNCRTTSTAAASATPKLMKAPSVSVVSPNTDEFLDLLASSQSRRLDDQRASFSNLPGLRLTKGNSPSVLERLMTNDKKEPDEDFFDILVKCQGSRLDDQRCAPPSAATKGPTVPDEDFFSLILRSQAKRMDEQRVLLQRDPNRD

T4: AGS3-GL1234 (470–631) (mouse)
T4 chain: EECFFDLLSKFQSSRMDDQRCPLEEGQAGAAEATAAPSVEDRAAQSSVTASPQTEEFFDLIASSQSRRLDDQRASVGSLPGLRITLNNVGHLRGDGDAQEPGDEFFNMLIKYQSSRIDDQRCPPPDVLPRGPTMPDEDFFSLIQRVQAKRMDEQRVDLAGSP

T5: AGS3-TPR (1–405) (mouse)
T5 chain: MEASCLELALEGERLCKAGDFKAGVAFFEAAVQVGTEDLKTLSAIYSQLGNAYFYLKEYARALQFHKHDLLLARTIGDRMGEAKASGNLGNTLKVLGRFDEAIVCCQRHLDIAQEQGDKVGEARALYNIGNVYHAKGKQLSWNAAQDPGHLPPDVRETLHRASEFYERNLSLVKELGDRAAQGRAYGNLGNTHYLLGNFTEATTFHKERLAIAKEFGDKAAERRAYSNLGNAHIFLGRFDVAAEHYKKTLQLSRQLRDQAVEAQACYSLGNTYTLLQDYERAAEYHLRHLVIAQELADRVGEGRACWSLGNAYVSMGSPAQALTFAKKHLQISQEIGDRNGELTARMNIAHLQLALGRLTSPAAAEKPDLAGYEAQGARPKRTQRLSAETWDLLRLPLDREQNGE

T6: FL-LGN-4E (mouse, UniProt Q8VDU0)
T6 sequence (Q8VDU0 whole entry, looked up): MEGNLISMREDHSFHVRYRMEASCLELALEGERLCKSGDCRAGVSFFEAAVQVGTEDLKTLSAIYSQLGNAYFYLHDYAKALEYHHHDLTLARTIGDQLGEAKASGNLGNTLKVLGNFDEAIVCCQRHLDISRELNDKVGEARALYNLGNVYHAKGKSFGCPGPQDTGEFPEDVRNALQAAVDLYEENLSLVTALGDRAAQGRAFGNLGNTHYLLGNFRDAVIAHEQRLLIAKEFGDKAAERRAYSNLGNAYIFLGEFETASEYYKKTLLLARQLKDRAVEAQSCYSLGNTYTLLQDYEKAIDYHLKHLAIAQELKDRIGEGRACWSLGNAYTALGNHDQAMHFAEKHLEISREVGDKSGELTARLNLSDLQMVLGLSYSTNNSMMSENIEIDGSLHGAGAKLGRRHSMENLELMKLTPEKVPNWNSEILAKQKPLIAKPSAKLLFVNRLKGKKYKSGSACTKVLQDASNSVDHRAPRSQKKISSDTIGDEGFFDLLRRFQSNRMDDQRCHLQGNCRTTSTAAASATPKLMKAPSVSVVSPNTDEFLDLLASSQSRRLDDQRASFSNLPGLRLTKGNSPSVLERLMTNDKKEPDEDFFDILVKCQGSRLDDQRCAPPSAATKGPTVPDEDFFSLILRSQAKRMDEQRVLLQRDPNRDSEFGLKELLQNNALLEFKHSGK

T7: AGS3-L (−23–405) (mouse)
T7 chain: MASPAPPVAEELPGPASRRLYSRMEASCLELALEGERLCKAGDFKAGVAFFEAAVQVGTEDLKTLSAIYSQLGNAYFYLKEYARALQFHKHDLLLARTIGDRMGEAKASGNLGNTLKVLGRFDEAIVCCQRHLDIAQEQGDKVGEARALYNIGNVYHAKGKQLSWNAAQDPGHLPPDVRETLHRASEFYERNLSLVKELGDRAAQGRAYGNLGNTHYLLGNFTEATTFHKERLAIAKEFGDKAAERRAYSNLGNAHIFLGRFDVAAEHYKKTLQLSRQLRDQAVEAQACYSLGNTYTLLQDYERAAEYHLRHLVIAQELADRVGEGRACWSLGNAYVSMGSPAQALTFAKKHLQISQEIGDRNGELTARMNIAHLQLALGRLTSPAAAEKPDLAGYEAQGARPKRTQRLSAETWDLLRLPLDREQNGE

T8: FL-AGS3-4E (mouse, UniProt Q6IR34)
T8 sequence (Q6IR34 whole entry, looked up): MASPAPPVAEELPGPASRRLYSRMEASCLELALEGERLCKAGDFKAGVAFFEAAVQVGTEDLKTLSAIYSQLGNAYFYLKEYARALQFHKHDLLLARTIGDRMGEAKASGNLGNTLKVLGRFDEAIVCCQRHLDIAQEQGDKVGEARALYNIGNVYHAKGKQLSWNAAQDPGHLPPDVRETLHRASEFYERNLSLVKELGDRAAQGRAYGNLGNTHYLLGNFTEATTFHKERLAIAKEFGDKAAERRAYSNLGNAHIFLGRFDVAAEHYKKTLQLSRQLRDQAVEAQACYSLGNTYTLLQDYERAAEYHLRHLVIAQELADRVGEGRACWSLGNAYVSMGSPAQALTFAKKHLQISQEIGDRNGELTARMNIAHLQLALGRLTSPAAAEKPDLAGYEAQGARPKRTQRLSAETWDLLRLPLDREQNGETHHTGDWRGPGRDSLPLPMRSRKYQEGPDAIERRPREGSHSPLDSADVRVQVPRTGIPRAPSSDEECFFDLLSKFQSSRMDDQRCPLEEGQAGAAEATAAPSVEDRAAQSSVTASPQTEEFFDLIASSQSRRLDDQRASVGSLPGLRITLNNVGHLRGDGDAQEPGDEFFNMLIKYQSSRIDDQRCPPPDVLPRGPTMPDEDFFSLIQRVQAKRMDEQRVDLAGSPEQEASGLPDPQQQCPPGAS

T9: NuMA (1886–1912) (human, UniProt Q14980-2 1886-1912)
T9 chain: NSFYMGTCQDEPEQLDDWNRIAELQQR

B1: Gαi3⋅GDP (natural protein)
chain: MGCTLSAEDKAAVERSKMIDRNLREDGEKAAKEVKLLLLGAGESGKSTIVKQMKIIHEDGYSEDECKQYKVVVYSNTIQSIIAIIRAMGRLKIDFGEAARADDARQLFVLAGSAEEGVMTPELAGVIKRLWRDGGVQACFSRSREYQLNDSASYYLNDLDRISQSNYIPTQQDVLRTRVKTTGIVETHFTFKDLYFKMFDVGGQRSERKKWIHCFEGVTAIIFCVALSDYDLVLAEDEEMNRMHESMKLFDSICNNKWFTETSIILFLNKKDLFEEKIKRSPLTICYPEYTGSNTYEEAAAYIQCQFEDLNRRKDTKEIYTHFTCATDTKNVQFVFDAVTDVIIKNNLKECGLY
B2: Insc (18–66) (domain or fragment)
chain: WGLWGAQESRRLCCVGPDRCGQALLQIGINMMALPGGRHLDSVPLQEQR
B3: LGN-TPR (1–409) (domain or fragment)
chain: MREDHSFHVRYRMEASCLELALEGERLCKSGDCRAGVSFFEAAVQVGTEDLKTLSAIYSQLGNAYFYLHDYAKALEYHHHDLTLARTIGDQLGEAKASGNLGNTLKVLGNFDEAIVCCQRHLDISRELNDKVGEARALYNLGNVYHAKGKSFGCPGPQDTGEFPEDVRNALQAAVDLYEENLSLVTALGDRAAQGRAFGNLGNTHYLLGNFRDAVIAHEQRLLIAKEFGDKAAERRAYSNLGNAYIFLGEFETASEYYKKTLLLARQLKDRAVEAQSCYSLGNTYTLLQDYEKAIDYHLKHLAIAQELKDRIGEGRACWSLGNAYTALGNHDQAMHFAEKHLEISREVGDKSGELTARLNLSDLQMVLGLSYSTNNSMMSENIEIDGSLHGAGAKLGRRHSMENLELMK

For one test, the target named is T1, LGN GL4 motif. Nature of the test: ITC.
The target in the next test is T2, LGN GL3 motif. Briefly: ITC.
Another test concerns the target T3, LGN-GL1234 (483–650). Briefly: ITC. A general note: ITC needs no label: the signal is the heat of the interaction.
In a further test the target is T4, AGS3-GL1234 (470–631). Nature of the test: ITC.
The next test has as its target T5, AGS3-TPR (1–405). Briefly: ITC; AGS3-TPR premixed with NuMA (1886–1912).
Another test addresses T6, FL-LGN-4E. Briefly: ITC.
The test “LGN-TPR (1–409)” deals with B3. Nature of the test: ITC.
The next test deals with T7, AGS3-L (−23–405). Nature of the test: ITC.
In a further test the target is T8, FL-AGS3-4E. Nature of the test: ITC.
For another test, the target named is T9, NuMA (1886–1912). Nature of the test: ITC.
The test “Insc (18–66)” deals with B2. Briefly: ITC.

For B1, the Kd in the test with LGN GL4 motif turned out to be 190 nM; with LGN GL3 motif, 42 nM; with LGN-GL1234 (483–650), 260 nM; with AGS3-GL1234 (470–631) it was 280 nM.
As for B2, the dissociation constant (Kd) with AGS3-TPR (1–405) is 12700 nM; in the test with FL-LGN-4E it was 580 nM; with LGN-TPR (1–409) it was 980 nM; with AGS3-L (−23–405) it was 870 nM; with FL-AGS3-4E it was 290 nM.
On to B3, for which the results for the dissociation constant Kd with NuMA (1886–1912) and in the test with Insc (18–66) were 630 nM and 980 nM, respectively.

The Kd is the concentration at which binding is half-saturated. A lower Kd goes with higher affinity.

Source of the values: article PMC12151148 (2024).
